The text below walks through data of paper PMC6488228 (Nature microbiology, 2018).

Test [1] has as its target VgrG1 (from pRSFDuet-1::vgrG1::eagT6) (Pseudomonas aeruginosa). Briefly: cryo-EM structure.
Test [2] has as its target Tse6 (full-length, C-terminal His8 tag) (Pseudomonas aeruginosa, UniProt Q9I739 1-430). Briefly: cryo-EM structure.

Tse6 (full-length, C-terminal His8 tag), sequence (Q9I739 whole entry): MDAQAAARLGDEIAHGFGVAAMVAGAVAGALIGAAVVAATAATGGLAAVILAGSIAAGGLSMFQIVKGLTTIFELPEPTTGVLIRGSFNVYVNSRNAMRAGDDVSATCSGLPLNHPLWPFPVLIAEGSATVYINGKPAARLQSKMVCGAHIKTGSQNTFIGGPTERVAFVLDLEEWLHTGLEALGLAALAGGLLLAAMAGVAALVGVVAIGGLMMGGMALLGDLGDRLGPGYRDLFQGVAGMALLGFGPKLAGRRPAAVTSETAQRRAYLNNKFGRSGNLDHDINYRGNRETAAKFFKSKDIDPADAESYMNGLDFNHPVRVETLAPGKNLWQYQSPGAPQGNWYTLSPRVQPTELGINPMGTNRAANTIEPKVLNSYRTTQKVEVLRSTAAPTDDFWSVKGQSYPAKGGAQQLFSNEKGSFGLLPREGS

In the case of “VgrG1 (from pRSFDuet-1::vgrG1::eagT6) (natural protein)”, the stoichiometry N (usually the number of molecules, sites or subunits per partner or assembly) in test [1] came to 3.

B1: EagT6 (from pRSFDuet-1::vgrG1::eagT6) (natural protein)
chain: MTLYRLHEADLEIPDAWQDQSINIFKLPASGPAREASFVISRDASQGDAPFADYVARQLENAEKQLPGFKLHKRWDINIHGHAAVLLDYQWQREGRDLMLRQVFIERRPAVLITTLTTTPADLPHHEPAWKQAMQTLVPRPTPS
As for B1, the binding result in test [2] was “binds”.
